Reference: patent US8633026B2, “Cytokine induction of selectin ligands on cells” (priority 2006, dated 2014)

B1: G-CSF: recombinant human granulocyte colony stimulating factor (Amgen), cytokine (protein, UniProt P09919 31-207, looked up)
Granulocyte …: TPLGPASSLPQSFLLKCLEQVRKIQGDGAALQEKLVSECATYKLCHPEELVLLGHSLGIPWAPLSSCPSQALQLAGCLSQLHSGLFLYQGLLQALEGISPELGPTLDTLQLDVADFATTIWQQMEELGMAPALQPTQGAMPAFASAFQRRAGGVLVASHLQSFLEVSYRVLRHLAQP

How the values were obtained:
CD15 = CD15 expression by flow cytometry after G-CSF treatment with or without DANA; assay type: cell-based, human; conditions: for expression of CD15: 10 ng/ml G-CSF, 72 hr
Experimental: Bone marrow cells were treated with 10 ng/mL of G-CSF for 5 days in the presence or absence of 100 mM DANA and expression of CD15 was analyzed by flow cytometry.
(§1) Aliquots of ˜2-5×10^5 cells were washed with PBS, 2% FBS and incubated with primary mAbs. Subsequently, the cells were washed and incubated with species and isotype matched FITC- or PE-labeled polyclonal antibodies. Following this incubation, the cells were washed and FITC or PE fluorescence of cells was determined using a Cytomics FC 500 MPL flow cytometer (Beckman Coulter Inc., Fullerton, Calif.).
(§2) Freshly isolated BM cells were separated into early immature (Band 1), late immature (Band 2) and mature (Band 3) myeloid fractions.

L-selectin = test: Flow cytometry of L-selectin on G-CSF-treated BM cells; assay type: cell-based, human; conditions: in vitro, 10 ng/ml G-CSF, 72 hr
Experimental: as §1

endothelial E-selectin = test: Parallel plate flow chamber adhesion of G-CSF-treated Band 2 cells on stimulated HUVEC; assay type: cell-based, human; conditions: 72 hr G-CSF, 1.5 dyne/cm^2, IL-1β-stimulated HUVEC
Source text: FIGS. 12A-B illustrates G-CSF treatment enhances the capability of human BM cells to adhere to endothelial E-selectin under physiologic flow conditions. HUVEC were stimulated with IL-1β for 4-6 hrs. Subsequently, untreated or 72 hr. G-CSF-treated Band 2 cells were perfused over HUVEC at 1.5 dyne/cm^2. In certain instances, stimulated HUVEC were pretreated with a mAb to E-selectin prior to use in adhesion assays. […]
(§3) A tissue culture dish containing confluent HUVEC monolayer or CHO cells was loaded into a parallel plate flow chamber (Glycotech; Gaithersburg, Md.). […] Primary tethering^49 was determined by quantifying the number of ML or NL that attached (i.e., interacted) from the free stream directly onto HUVEC monolayer or CHO cells during the first 2 minutes of flow. Secondary attachments (i.e., flowing leukocytes interacting with an already adherent leukocyte on HUVEC monolayer or CHO cells) or leukocytes that rolled into the field of observation from the upstream region were not counted. Average rolling velocity, a quantitative measure of selectin binding strength, was computed (using Scion Image) as the displacement by the centroid of the cell divided by the time interval of observation, 5 sec.

[1] = test system: Hcell and HECA-452-reactive ˜65 kDa glycoprotein on human BM cells; test: In vitro G-CSF treatment of human BM cells, HECA-452 and E-Ig Western blots; assay type: cell-based
Experimental: Normal human bone marrow (BM) cells were isolated from human BM harvest material (Massachusetts General Hospital, Boston, Mass.). Red cells were separated using dextran sedimentation method. The leukocyte-rich supernatant was subjected to a two-step discontinuous Percoll (Amersham Pharmacia Biotech; Piscataway, N.J.) density gradient centrifugation (1.065 g/ml and 1.080 g/ml; 1000 g for 20 min at 4° C.). […] The cells with least density found at the upper band (“Band 1”) contained early immature cells (myeloblasts and promyelocytes), “Band 2” contained late immature cells (primarily myelocytes and metamyelocytes), and “Band 3” contained the most mature leukocytes (predominantly band and segmented neutrophils) as well as some contaminating red cells, which were subsequently removed by hypotonic lysis. The cells in different bands were collected, washed and used for further studies. In some instances, BM mononuclear cells (BM-MNC) were isolated by Ficoll-Hypaque density gradient centrifugation. CD34+/lineage—subpopulation was isolated from BM-MNC using a negative cell selection StemSep™ human progenitor enrichment cocktail (Stem Cell Technologies Inc.); CD34+ cells were then further isolated by positive selection using anti-CD34 immunomagnetic beads (Miltenyi Biotech.), routinely resulting in populations of >98% CD34+ cells.
Membrane proteins of purified ML-M, ML-G, PMN, or PBMC were isolated as described previously^28,39. Membrane protein suspensions were aliquoted and stored at −20° C. For SDS-PAGE and Western blotting, membrane preparations were diluted in reducing sample buffer, boiled and then separated on 4-20% or 7.5% Criterion Tris-HCl SDS-PAGE gels (Bio-Rad Laboratories). Resolved membrane proteins were transferred to Sequi-blot polyvinylidene diflouride (PVDF) membrane (Bio-Rad Laboratories) and blocked with heat inactivated FBS. Blots were incubated with primary antibodies or E-Ig (each at 1 μg/ml). Appropriate isotype control immunoblots (each at 1 μg/ml) were performed in parallel to evaluate nonspecific binding to protein bands. […]

Fuct-IX = test: FucT-IX expression after in vitro G-CSF treatment; assay type: cell-based, human; conditions: normal progenitors and mobilized peripheral blood, 10 ng/ml G-CSF, 72 hr
Source text: Lane 1 are normal cells isolated from bone marrow from healthy donor. Lane 2 are G-CSF treated normal progenitors isolated from bone marrow from healthy donor. Lane 3 are untreated cells isolated from G-CSF mobilized blood. Lane 4 are G-CSF treated cells isolated from G-CSF mobilized blood.
CD15 plays a role in innate immunity in priming dendritic cells. Moreover, FTIX fucosylates internal lactosamine units yielding the VIM-2 epitope. While, the VIM-2 is not sLex, but it consists of a terminal sialic acid with an “internal fucosylation” that can function as an E-selectin ligand

[2] = test system: E-selectin ligands on circulating leukocytes; test: Clinical collections of leukocytes mobilized by G-CSF administration (ML); assay type: in vivo, human
Source text: Materials: G-CSF mobilized peripheral blood (MPB) was obtained from pheresis products of donors for clinical HSCT at Brigham and Women's Hospital/Dana Farber Cancer Institute (Boston, Mass.). G-CSF MPB leukocytes (ML) were isolated from buffy coat of dextran sedimentated whole blood, followed by hypotonic lysis to remove contaminating red cells. Mononuclear fraction of these cells (ML-M) was isolated by Ficoll-Hypaque (1.077 g/ml; Sigma Aldrich) density gradient centrifugation. Native (unmobilized) peripheral blood was obtained from consenting healthy volunteers, and NL (buffy coat) were isolated using dextran sedimentation as for ML. Peripheral blood mononuclear cells (PBMC) were isolated by Ficoll-Hypaque density gradient centrifugation. Polymorphonuclear leukocytes (PMN) were isolated by dextran sedimentation followed by collecting the cell pellet after Ficoll-Hypaque density gradient centrifugation. Contaminated red cells were removed by hypotonic lysis.
as §3, with “sec. […]” for “sec.”
Aliquots of ˜2-5×10^5 cells were washed with PBS, 2% FBS and incubated with primary mAbs. […] Following this incubation, the cells were washed and FITC or PE fluorescence of cells was determined using a Cytomics FC 500 MPL flow cytometer (Beckman Coulter Inc., Fullerton, Calif.).

sialidase = test: Sialidase expression/activity after G-CSF treatment of human myeloid cells; assay type: cell-based
Source text: as §2

[3] = test system: ST3GalIV, FucT-IV and FucT-VII; test: RT-PCR of glycosyltransferases in G-CSF-treated Band 2 BM cells; assay type: cell-based; conditions: immature human BM cells (Band 2), 10 ng/ml G-CSF, 72 hr
Source text: ID NO:1) and antisense [NT] NO:2); FucT-VII, sense [NT] ID NO:3) and antisense [NT] ID NO:4); FucT-IV, sense […] NO:5) and antisense […] NO:6); GAPDH sense [NT] ID NO:8) and antisense [NT] ID NO:9).

[4] = multiple clinical ML collections, G-CSF administration

Molecule | G-CSF-induced increase in CD15 under sialidase inhibition (CD15; bone marrow cells, 10 ng/mL G-CSF for 5 days, 100 mM DANA, flow cytometry) | G-CSF-induced increase of CD15 under sialidase inhibition (CD15; late mature bone marrow and leukocytes, G-CSF-treated) | L-selectin expression on G-CSF treated cells relative to untreated cells (L-selectin) | E-selectin binding (primary tethering, rolling velocity on stimulated HUVEC) (endothelial E-selectin) | expression of Hcell and the HECA-452-reactive ˜65 kDa glycoprotein ([1]; 10 ng/ml G-CSF, 72 hr, 37° C., predominantly immature Band 1 and Band 2 human BM cells) | HCELL induction on lymphocytes ([1]; lymphocytes in BM or in blood) | inducing HCELL expression among mature myeloid BM cells ([1]; mature myeloid BM cells) | Fuct-IX expression (Fuct-IX) | expression of CD15 (CD15; early immature bone marrow) | expression of CD15 (CD15; late mature bone marrow and leukocytes) | surface L-selectin expression on circulating leukocytes ([2]; following G-CSF administration, flow cytometry) | E-selectin ligand activity of circulating leukocytes [2, 4] | expression of the E-selectin ligands HCELL and the HECA-452-reactive ˜65 kDa glycoprotein [2, 4] | expression of sialidase (sialidase; bone marrow and leukocytes, 10 ng/ml G-CSF, 72 hr) | sialidase activity (sialidase; human myeloid bone marrow cells, 10 ng/mL G-CSF, 24 hours, 4-MU-NANA substrate) | expression levels of ST3GalIV, FucT-IV and FucT-VII [3]
CC(=O)N[C@H]1[C@H]([C@H](O)[C@H](O)CO)OC(C(=O)O)=C[C@@H]1O [DANA, 2-deoxy-2,3-dehydro-N-acetyl-neuraminic acid, reference compound] | blunts G-CSF-induced increase in CD15 | could be prevented | – | – | – | – | – | – | – | – | – | – | – | – | – | –
B1 | – | – | down-regulation of L-selectin expression | enhanced E-selectin binding | up-regulation in expression | not induced | only a variable effect | increases Fuct-IX expression | did not has an effect | increased expression of CD15 | marked decrease in surface L-selectin expression | uniformly increased E-selectin ligand activity | upregulated the expression | increase expression of sialidase | increases sialidase activity | increases in expression levels
